Source: PMC3145792

Molecular target: SECRET domain (smallpox virus-encoded chemokine receptor domain) of the vTNFR CrmD encoded by ectrom (ectromelia virus)
Assay: crystal structure

Substance “chemokine domain of human CX3CL1 (residues 1-76) (from UniProt P78423 25-100) (domain or fragment)” has a stoichiometry N of 1.
